Biological target: tau (residues 149-395) labeled with Alexa Fluor 488 at C291 (human) (UniProt P10636)
Experiment: fluorescence correlation spectroscopy

UniProt P10636, sequence (P10636 466-712 C639S): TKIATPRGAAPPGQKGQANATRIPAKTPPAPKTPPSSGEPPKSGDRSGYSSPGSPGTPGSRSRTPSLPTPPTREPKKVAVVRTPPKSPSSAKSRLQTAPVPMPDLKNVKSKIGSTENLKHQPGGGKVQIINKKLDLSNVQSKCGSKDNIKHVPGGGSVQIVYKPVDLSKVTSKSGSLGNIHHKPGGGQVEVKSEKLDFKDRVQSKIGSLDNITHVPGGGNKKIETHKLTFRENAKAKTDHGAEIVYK

fold weaker affinity than intact tubulin: 5 fold
maximum increase in diffusion time of tau: 0.15 ms
Substance: tailless tubulin (subtilisin-cleaved bovine brain tubulin) (from UniProt Q6B856 1-445) (complex)
